Assay [1] concerns the target T1, cyno Kv1.3 (Macaca fascicularis, UniProt P22001 1-575 (human entry)).
T1 construct: Expressed on CHO cells; also called cyKv1.3; cynomolgus Kv1.3
T1 chain: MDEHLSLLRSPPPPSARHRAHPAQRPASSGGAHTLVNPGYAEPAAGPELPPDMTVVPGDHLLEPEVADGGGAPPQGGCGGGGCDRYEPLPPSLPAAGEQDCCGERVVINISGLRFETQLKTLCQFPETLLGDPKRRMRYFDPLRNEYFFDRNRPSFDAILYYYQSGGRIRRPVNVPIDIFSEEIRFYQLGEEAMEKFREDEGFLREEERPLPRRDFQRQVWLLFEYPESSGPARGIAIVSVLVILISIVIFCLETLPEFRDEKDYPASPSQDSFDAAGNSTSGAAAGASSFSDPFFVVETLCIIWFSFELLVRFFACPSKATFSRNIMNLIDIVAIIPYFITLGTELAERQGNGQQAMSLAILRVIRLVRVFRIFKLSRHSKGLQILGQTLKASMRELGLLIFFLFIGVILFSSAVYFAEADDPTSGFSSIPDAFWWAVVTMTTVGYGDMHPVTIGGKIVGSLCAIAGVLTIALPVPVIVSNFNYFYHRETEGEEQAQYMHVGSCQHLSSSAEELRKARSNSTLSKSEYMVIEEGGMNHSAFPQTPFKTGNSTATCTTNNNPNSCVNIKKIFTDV
The assay can be described thus: FACS, CHO cells expressing cyno Kv1.3, with 50 µM HSA.

The target in assay [2] is T1, cyno Kv1.3.
For assay [3], the target named is T2, rat Kv1.3 (Rattus norvegicus, UniProt P15384 1-525).
T2 construct: Expressed on CHO cells
The assay can be described thus: FACS, CHO cells expressing rat Kv1.3, with 50 µM HSA. In general terms: A flow cytometer gives signals particle by particle.

Assay [4] concerns the target T3, human Kv1.3 (Homo sapiens, UniProt P22001 1-575).
T3 construct: also called huKv1.3; hKv1.3
Kind of assay: FACS, CHO cells expressing human Kv1.3.

In assay [5] the target is T1, cyno Kv1.3. Kind of assay: FACS, CHO cells expressing cyno Kv1.3.
Assay [6] addresses T1, cyno Kv1.3. The assay can be described thus: FACS, CHO cells expressing cyno Kv1.3.
For assay [7], the target named is T3, human Kv1.3. The assay can be described thus: cell-based or functional assay.
In assay [8] the target is T3, human Kv1.3. Kind of assay: cell-based or functional assay. The source holds these as a separate data set.
Assay [9] concerns the target T2, rat Kv1.3. The assay can be described thus: FACS, CHO cells expressing rat Kv1.3.
Assay [10] addresses T2, rat Kv1.3. The assay can be described thus: FACS, CHO cells expressing rat Kv1.3. The source holds these as a separate data set.

T3 sequence (P22001 whole entry): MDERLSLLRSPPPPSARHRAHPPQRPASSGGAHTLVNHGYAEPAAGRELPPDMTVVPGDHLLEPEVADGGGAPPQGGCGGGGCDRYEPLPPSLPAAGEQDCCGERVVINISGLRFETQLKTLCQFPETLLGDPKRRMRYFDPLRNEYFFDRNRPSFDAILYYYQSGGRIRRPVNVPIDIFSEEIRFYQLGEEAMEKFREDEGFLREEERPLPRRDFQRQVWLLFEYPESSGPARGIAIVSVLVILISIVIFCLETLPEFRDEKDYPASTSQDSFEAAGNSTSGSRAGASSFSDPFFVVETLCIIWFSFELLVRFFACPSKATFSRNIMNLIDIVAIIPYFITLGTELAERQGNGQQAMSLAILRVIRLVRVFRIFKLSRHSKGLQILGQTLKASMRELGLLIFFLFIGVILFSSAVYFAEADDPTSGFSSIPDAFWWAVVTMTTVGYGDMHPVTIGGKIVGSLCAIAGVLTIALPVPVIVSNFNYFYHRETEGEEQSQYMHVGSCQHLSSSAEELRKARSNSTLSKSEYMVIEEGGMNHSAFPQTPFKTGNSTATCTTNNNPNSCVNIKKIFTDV

B1: A019400013 (VHH)
chain: EVQLVESGGGLVQAGGSLGLSCSASGLLFSRNSAGWYRQAPGKQREFVARIRMGGSINYADTVKGRFTISRDNAKNTVYLQMNSLKPEDTAVYYCSSWRTGFYEYWGQGTLVTVSSGGGGSGGGGSGGGGSGGGGSGGGGSGGGGSGGGGSEVQLVESGGGLVQAGGSLGLSCSASGLLFSRNSAGWYRQAPGKQREFVARIRMGGSINYADTVKGRFTISRDNAKNTVYLQMNSLKPEDTAVYYCSSWRTGFYEYWGQGTLVTVSS
notes: Bivalent Nanobody construct (family 12 - family 12), without Alb11; also called A0194009G09-35GS-A0194009G09
As usually defined, the EC50 is the concentration needed to bring the measured effect to its halfway point. A higher EC50 goes with lower potency in that assay. Usually IC50 stands for the concentration at which inhibition is half-maximal. Take B1: the EC50 in [1] was 0.45 nM; in assay [3], 0.85 nM; in assay [4], 0.32 nM; in [5] it was 0.33 nM; in assay [6], 0.24 nM; in [9], 0.704 nM. Moreover, the midpoint of the response in assay [10], the EC50, lay at 0.49 nM. In assay [2], this molecule came in with an IC50 of 0.66 nM. For the same molecule, in [7], the “IC50, CD25 read out, T cell activation assay” value stood at 0.12 nM. Besides, the “IC50, CD25 read out, T cell activation assay, with 10 µM HSA” value in assay [7] amounted to 0.037 nM. In assay [7], the “IC50, IFNγ read out, T cell activation assay” value is 0.083 nM. Besides, in [7], the “IC50, IFNγ read out, T cell activation assay, with 10 µM HSA” value was 0.031 nM. Also, the “IC50, CD25 read out, CCR7-CD45RA- T cells stimulated with anti-CD3” value in assay [8] stood at 0.12 nM. Also, in assay [8], the “IC50, IFNγ read out, CCR7-CD45RA- T cells stimulated with anti-CD3” value turned out to be 0.083 nM.

(Values after patent publication US20170137512A1 (Ablynx, published 2017).)
